US5976535A, “Pretargeting protocols for the enhanced localization of cytotoxins to target sites and cytotoxic combinations useful therefore” (NeoRx Corporation, priority 1995, dated 1999)
Read-outs that look alike come from different tables or passages of the source.

Tests used:
LS-180 tumor xenografts [1] = assay: Two-step pretargeting of 131I-PIP-biocytin in tumor-bearing mice; type: in vivo, female nude mice; conditions: 200 μg NR-LU-10-streptavidin at t=0; 42 μg at t=36 h
Description: At t=0, the mice were injected with 200 μg of NR-LU-10-streptavidin conjugate labeled with ^125 I using PIP-NHS (see Example IV.A.). At t=36 h, the mice received 42 μg of ^131 IPIP-biocytin.

LS-180 tumor xenografts [2] = assay: Tumor uptake of PIP-biocytin (two-step pretargeting); type: in vivo, tumored nude mice
Description: (§1) At 24 hours, the mice received an i.v. injection of PIP-I-131-biocytin (40 μCi) and an amount of cold carrier PIP-I-127 biocytin corresponding to doses of 42 μg (69,767 pmol), 21 μg (34,884 pmol), 5.7 μg (9468 pmol), 2.85 μg (4734 pmol) or 0.5 μg (830 pmol).

[3] = as above; type: in vivo, tumored nude mice; conditions: mouse, tumor, 0.0005 mg; 0.5 μg dose; 120 hour time point (96 hours after administration); read-out: peak tumor uptake
Description: as §1

LS-180 tumor = conditions: mouse, in vivo
Description: (§2) Time 0 inject (i.v.) 200 μg NR-LU-10-StrAv

in vivo = conditions: mouse
Description: as §2

[4] = tested on: LS-180 human colon tumor xenografts
Description: The experimental protocol was as follows:
Group 1: Time 0, inject 100 μg ^125 I-labeled,
The three radiolabels employed in this protocol are capable of detection in the presence of each other.
Areas under the curves (AUC) and the ratio of AUCtumor /AUCblood were determined.

[5] = in vivo; cited from earlier work
[6] = type: in vivo, female BALB/c mice; conditions: 5 minutes post-administration, percent injected dose of I-125-labeled protein
Description: A. Derivitization of orosomucoid. 10 mg human orosomucoid (Sigma N-9885) was dissolved in 3.5 ml of pH 5.5 0.1 M sodium acetate buffer containing 160 mM NaCl. 70 μl of a 2% (w/v) CaCl solution in deionized (D.I.) water was added and 11 μl of neuraminidase (Sigma N-7885), 4.6 U/ml, was added. The mixture was incubated at 37° C. for 2 hours, and the entire sample was exchanged over a Centricon-10® ultrafiltration device (available from Amicon, Danvers, Mass.) with 2 volumes of PBS. The asialoorosomucoid and orosomucoid starting material were radiolabeled with I-125 using PIP technology, as described in Example IV above.
In addition, two animals receiving each compound were sacrificed at 5 minutes post-administration and limited biodistributions were performed.

[7] = biological target: T1, Streptavidin-agarose beads (Streptomyces avidinii, UniProt P22629); assay: Binding to streptavidin-agarose beads; conditions: for Pellet: radioactivity bound to beads; for Supernatant: radioactivity not bound to beads
T1 construct: purchased Sigma S-1638
T1 sequence (P22629 25-183): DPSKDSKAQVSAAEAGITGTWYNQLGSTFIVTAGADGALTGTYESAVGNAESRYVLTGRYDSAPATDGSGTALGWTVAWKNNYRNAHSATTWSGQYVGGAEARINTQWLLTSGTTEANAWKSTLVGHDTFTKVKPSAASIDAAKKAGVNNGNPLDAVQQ
Description: B. Biotinylation of asialoorosomucoid clearing agent and orosomucoid control. 100 μl of 0.2 M sodium carbonate buffer, pH 9.2, was added to 2 mg (in 1.00 ml PBS) of PIP-125-labeled orosomucoid and to 2 mg PIP-125-labeled asialoorosomucoid. 60 μl of a 1.85 mg/ml solution of NHS-amino caproate biotin in DMSO was then added to each compound. The reaction mixtures were vortexed and allowed to sit at room temperature for 45 minutes. […]. Streptavidin-agarose beads (Sigma S-1638) or -pellets were washed with PBS, and 20 μg of each biotinylated, radiolabeled protein was added to 400 μl of beads and 400 μl of PBS, vortexed for 20 seconds and centrifuged at 14,000 rpm for 5 minutes. The supernatant was removed and the pellets were washed with 400 μl PBS. This wash procedure was repeated twice more, and the combined supernatants were assayed by placing them in a dosimeter versus their respective pellets.

For `O=C(CCCCC1SCC2NC(=O)NC21)NCCCCC(NC(=O)c1ccc([131I])cc1)C(=O)O` (stereo not shown) [PIP-biocytin], which “specific tumor localization, molecules per avidin molecule” value (LS-180 tumor xenografts [1]) is on record?
The value was “≈ 1.5”.

And the “absolute AUCtumor” value (LS-180 tumor xenografts [2]; mouse, in vivo)?
The value was 9220.

What about the tumor localization (LS-180 tumor xenografts [2]; three highest doses (42, 21, 5.7 μg), 4 hours after injection) of the same molecule?
Its tumor localization is “about 600 pmol/g”.

What about the tissue uptake at 96 h [3] of the same molecule?
Its tissue uptake at 96 h is 85 %ID/g.

And the peak tumor uptake (LS-180 tumor)?
The peak tumor uptake was “about 700 pMOL/G”.

What about the tumor uptake (LS-180 tumor) of the same molecule?
Its tumor uptake is “above 500 pMOL/G”.

What about the half-life (in vivo) of the same molecule?
Its half-life is about 5 min.

Which tumor uptake ([4]; at 25 h (antibody at time 0, avidin at 24 h)) does the source give for Avidin here?
The tumor uptake was “about 250 pmol/g”.

What about the tumor uptake ([4]; at 32 h (antibody at time 0, avidin at 24 h)) of the same molecule?
The tumor uptake was about 150 pmol/g.

What about the tumor uptake ([4]; at 48 h (antibody at time 0, avidin at 24 h)) of the same molecule?
The tumor uptake was about 50 pmol/g.

And the tumor uptake ([4]; at 120 h (antibody at time 0, avidin at 24 h))?
Its tumor uptake is about 0 pmol/g.

For TNF-alpha, which serum half-life [5] is on record?
The serum half-life was 10 to 15 min.

Which results are given for “asialoorosomucoid: orosomucoid treated with neuraminidase to remove sialic acid residues”?
blood level [6]: 0.4%; Pellet [7]: 8.0%; Supernatant [7]: 92%

For “orosomucoid: human orosomucoid (alpha-1 acid glycoprotein, Sigma N-9885), I-125 labeled [reference compound]”, which blood level [6] is on record?
Its blood level is 78%.

What about the Pellet [7] of the same molecule?
The Pellet was 10%.

And the Supernatant [7]?
Its Supernatant is 90%.

B1: TNF-beta: tumor necrosis factor beta form, 171 amino acids (protein, UniProt P01374 35-205, looked up)
Lymphotoxin-alpha: LPGVGLTPSAAQTARQHPKMHLAHSTLKPAAHLIGDPSKQNSLLWRANTDRAFLQDGFSLSNNSLLVPTSGIYFVYSQVVFSGKAYSPKATSSPLYLAHEVQLFSSQYPFHVPLLSSQKMVYPGLQEPWLHSMYHGAAFQLTQGDQLSTHTDGIPHLVLSPSTVFFGAFAL
With B1 as the molecule, how does the serum half-life [5] read?
The serum half-life was 10 to 15 min.
